According to the supplement of paper PMC12764529:
± gives the half width of the 95% confidence interval.

Assay: folding stability dG unfold from trypsin proteolysis; higher = more stable
Procedure, shortened: (§1)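 Mini-proteins designed to be under 80 residues and free of cysteine were carried in a PA-tagged cDNA display construct and digested with trypsin and with chymotrypsin. Each protease was applied at 11 threefold-diluted concentrations, alongside a no-protease condition, before sequencing. K50 came from Bayesian fitting of the sequencing counts, and unfolding free energy was obtained by comparing it with a sequence-predicted unfolded-state K50 and a shared folded-state K50, for each protease separately or for both together. Designs were retained only if their AlphaFold2 dimer inter-PAE exceeded 15.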

Compared with “SAGGSAGGSAGKEIKVETEENPNGQHPVKIEIYDGGNPRPIEFPVDSPEDAEDWAKELLKSAGGSAGGSAGG [r11_560_TrROS]”, “SAGGSAGGSSGPTLTIRYSILVSDSDGNWYALVFEARIYPNGDVEIRYRLYSYKDIPPGASPTSAGGSAGGS [r12_38_TrMRF]” is higher in “folding stability dG unfold” value: -0.595 ± 0.074 kcal/mol for the first, 4.12 ± 0.16 kcal/mol for the second.

Going from “SAGGSAMKEITIEVDGKTVRVKVYFKDTGKVVERTFPKGTSVEELAKELEEEFGKDVEIVEVEEVPSAGGSA [r15_544_TrROS_Hall]” to “SAGKITINVMMNPDGNYYVKIRIGGDGEPIMEFPVDSPEDAEEKAKAFADNLAKKYPNYKIEVDYMPFDSAG [r5_383_TrROS]”, the “folding stability dG unfold” value rises from 2.43 ± 0.11 kcal/mol to 4.23 ± 0.32 kcal/mol.

Going from “SAGGSAKAEEIAKLLKELGFKEVKIEKDKETNKVTITVKKKDGSEIKITIDKKTKKIVKIEIKPKKSAGGSA [r15_648_TrROS_Hall]” to “SKPMSPRDQLREIADDIAEKLNEKNGKPYKVRVEFEYPNMPFEIEIPPEAPIEDIMDHFPGWKIKVEIEPSA [r9_513_TrROS]”, the “folding stability dG unfold” value falls from 1.82 ± 0.067 kcal/mol to 0.00988 ± 0.15 kcal/mol.

Going from “SAGGSAKEIKAEVKVDPETGTVTVKVYYDGKLVAEATATVEPNGEIKEVNFFFEVDPETGKLIVTGSAGGSA [r15_770_TrMRF]” to “MLLEFESEEELEKAIKELIEKAKKEVEEKGKKNEELKINIPVILHDKETGKETTRPITINIKPDGKITILDS [r1_316_JUSTAS]”, the “folding stability dG unfold” value falls from 2.73 ± 0.12 kcal/mol to 0.953 ± 0.13 kcal/mol.

First: SAGGSAGGSMPDLRPAPVPALVIPLDLPLEEAIEKARELLDLPEDTEIPIAEFDPETGKIVIASAGGSAGGS [r12_815_TrMRF]
Second: SAGGMKITEEAIKNFPPGRWIQFRIPDDGYMVTIRVHDPGEIKINYRKFPPGNGEPREEQEHKIPLDSAGGS [r16_163_TrROS]
The “folding stability dG unfold” value of the first is lower: 0.533 ± 0.024 kcal/mol for the first, 0.845 ± 0.24 kcal/mol for the second.

For “SAGGSAGGSTPTEFAKNLNVTEVKYDPVKKTVRVIHEFEDYLVLVEYDPSTGEVRVEVFSKDESAGGSAGGS [r12_214_TrMRF]”, the “folding stability dG unfold” value was 1.4 ± 0.12 kcal/mol.

Assay: folding stability dG unfold from chymotrypsin proteolysis; higher = more stable
Procedure, shortened: as §1

Compared with “SAGGSAGGSPPVKYRITIEMKDPNGKEHTHTIEIPGMNPDDAKEFLEDIPIPPGIKDVEIEPYSAGGSAGGS [r12_886_TrROS]”, “SAGGSAGGSPSVVTLVSPDYYAEAFYFPDFVLVVLYDPEKGPPQVFLVSNENGELKFFPASEASAGGSAGGS [r12_632_TrMRF]” is higher in “folding stability dG unfold” value: -0.55 ± 0.68 kcal/mol for the first, 3.24 ± 0.059 kcal/mol for the second.

Compared with “SAGGSASPSEVRTITATLPGGVVREFEVKMPPGTTVYIPEEGKTITVPPDSSLPLPPDVSVEVRLESAGGSA [r15_152_JUSTAS]”, “SKKVEVKEIEIKLADGSKVKAKIVKLPDGTYRIFVEFPDGRVAVFEIDVNGKIVKVKPLEVFSLEELKKKSA [r9_1075_TrROS_Hall]” is higher in “folding stability dG unfold” value: -0.106 ± 0.021 kcal/mol for the first, 0.836 ± 0.47 kcal/mol for the second.

Compared with “SAGGSAGGSKKKVVIEVVIKVKKEDEEKIKKALEKELEKLGFKVKEVKVERTKNYVKVTVVLESAGGSAGGS [r12_731_TrROS_Hall]”, “SAGDPDRPLGPVEITVDPEENTLTITFGDLTLTLPLPEGVEATAEVFPDHVVLTVRYPDGTIRTFVFPLSAG [r5_21_TrMRF]” is higher in “folding stability dG unfold” value: 3.89 ± 0.2 kcal/mol for the first, 5.09 ± 0.15 kcal/mol for the second.

Compared with “APKPPVLVVEVVVLFPKEDPEVRELTVEEIAELAAEELTAHPDFKPVKVEVLSAEEHPDGYYTVTLKVTHVS [r1_484_TrMRF]”, “SAGGSPSITVSESSDPATGTRTLTITVPSSAPSATLNIVVSGSGPPVSSKTVTVPPGTTVTITYTTTSAGGS [r16_412_JUSTAS]” is higher in “folding stability dG unfold” value: 2.4 ± 0.036 kcal/mol for the first, 2.84 ± 0.049 kcal/mol for the second.

First: SAGGSAGGSAGMKVTATSLNPASGTVTVKFSDGTTRTFSSVEALKAAIPEGVPIEIAPAVSAGGSAGGSAGG [r17_295_JUSTAS]
Second: SAGGSAGGSGKKRKVEIPIFFSGPPEVADNLAKTLAQELGLPPEDVDIEIKVIPIMPPEQMAESAGGSAGGS [r12_1066_TrROS]
The “folding stability dG unfold” value of the first is higher: 2.297 ± 0.012 kcal/mol for the first, 0.818 ± 0.046 kcal/mol for the second.

First: SAGGSAMKITYKPPSGETTVHPIPPGLTPEERRALAEELAKALQEKTGDPNVTVEFDPATGEITVASAGGSA [r15_33_JUSTAS]
Second: SMKVKIKIEVYKPENKLIVKVYFPEIGKEIVFEFDSLEGLFEKIKKELGLKEENIEIVEVKVKEVDPSELSA [r9_909_TrMRF]
The “folding stability dG unfold” value of the first is lower: -0.0618 ± 0.15 kcal/mol for the first, 1.93 ± 0.048 kcal/mol for the second.

Going from “SAGGSAGGENNIEVYYVEVKVPDPSIPLSVVLEKLPLPPEFLTVTPVEVKPPDGTVLIAIYRDSSAGGSAGG [r6_955_TrMRF]” to “SAGGSAGGAPPDARVTIEVELKNPDGTPISEEEVIEKLKPLGLEPVEIDVDPETGKVTITVRVLSAGGSAGG [r6_774_JUSTAS]”, the “folding stability dG unfold” value rises from -0.0815 ± 0.14 kcal/mol to 1.04 ± 0.092 kcal/mol.

First: SAGGPDDMKIIEETTIRFPENGMQFNIRIYKLPDNDVFIEAEMIMPNGKPVGRMEARVPNGKPIEIPFSAGG [r13_573_TrROS]
Second: SAGKKIEIDMSLEELKKLPGIKKVEVKNGKVYLEVDGKKIEITIRPPKPVLEFKEGMSEEEKKELLKKLSAG [r5_2_TrROS_Hall]
The “folding stability dG unfold” value of the first is higher: 1.64 ± 0.12 kcal/mol for the first, 1.11 ± 0.1 kcal/mol for the second.

First: SAGGSAGGSAGGSDPVKVTVTFTATVTVTLPDGGTAPVTLTVTVTAELPPGQSVEDFVASAGGSAGGSAGGS [r4_126_TrMRF]
Second: SAGGSAGGSAVITTETGGDSTVTTTTSLTGEGGTLTTTTTTTTTDGTTTTTTTTTDTGLSPTSSAGGSAGGS [r12_769_JUSTAS]
The “folding stability dG unfold” value of the first is higher: 3.65 ± 0.055 kcal/mol for the first, 1.99 ± 0.024 kcal/mol for the second.

Going from “IVISPSMLRDARRQGIPKELLKKAKNVIIWSSNGNPEWAKELKEWPGVKKIKPVPPGDPDKQKDADHVIHFS [r1_248_TrROS]” to “SAGGSAGGSAKSFWIDSPEQAEELADELQQKGPNVEPTVERDDNNGWYQLEIPNGKDIVIWGSAGGSAGGSA [r18_154_TrROS]”, the “folding stability dG unfold” value rises from -0.673 ± 0.49 kcal/mol to 0.73 ± 0.19 kcal/mol.

With “SAGGSAMKVEIVLKVPGDEMLDIEVDEEFPVVDQTIDKETGIVTVLLEGDPEKAEEIAKEIAEKLGSAGGSA [r15_662_TrMRF]” the “folding stability dG unfold” value was 0.299 ± 0.044 kcal/mol.
